Measured values reported in patent US12356911B2, “Group of UDP-glycosyltransferase for catalyzing carbohydrate chain elongation and application thereof” (GSYNBIOT (SHANGHAI) CO., LTD, priority 2017, dated 2025).

B1: GT29-19: Ginseng UDP-glycosyltransferase, 442 amino acids, SEQ ID NO: 116 (protein)
chain: MDNQEGRISIALLPFLAHGHISPFFELAKQLAKRNCNVFLCSTPINLSSIKNKDSSASIKLVELHLPSSPDLPPHYHTTNGLPSHLMVPLINAFETAGPTFSEILKTLNPDLLIYDFNPSWAPEIASSHNIPAVYFLTTAAASSSIGLHAFKNPGEKYPFPDFYDNSNNTPEPPSADNMKLLHDFIACFERSCDIILIKSFIELEGKYIDLLSTLSDKTLVPVGPLVQDPMGHNEDPKTEQIINWLDKRAESTVVFVCFGSEYFLSNEELEEVAIGLEISMVNFIWAVRLIEGEKKGVLPEGFVQRVGDRGLVVEGWAPQARILGHSSTGGFVSHCGWSSITESMKFGVPVIAMARHFDQPLNAKLAAEVGVGMEVVRDENGKYKREDIAGVIRKVVVEKSGEVIRRKARELSEKMKEIGEQLIDRAVEELVQICKKKKDEQ
modifications: misc_feature - GT29-19; Panax ginseng
B2: GT29-17: Ginseng UDP-glycosyltransferase, 442 amino acids, SEQ ID NO: 24 (protein)
chain: MDNQEGRISIALLPFLAHGHISPFFELAKQLAKRNCNVFLCSTPINLSSIKNKDSSASIKLVELHLPSSPDLPPHYHTTNGLPSHLMVPLINAFETAGPTFSEILKTLNPDLLIYDFNPSWAPEIASSHNIPAVCFIIGGAASFSMSLHSFKNPGEKYPFLDFDDNSNITPEPPSADNMKLLLDFMTCFERSCDIILIKSFRELEGKYFDFYSTLSDKTLVPVGPLVQDPMGHNEDPKTEQFINWLDKRAESTVVFVCFGSEYFLSNEELEEVAIGLEISMVNFIWAVRLIEGEKKGVLPEGFVQRVGDRGLVVEGWAPQARILGHSSTGGFVSHCGWSSITESMKFGVPVIAMARHFDQPLNAKLAAEVGVGMEVVRDENGKYKREDIAGVIRKVVVEKSGEVIRRKARELSEKMKEIGEQLIDRAVEELVQICKKKKDEQ
modifications: misc_feature - GT29-17; Panax ginseng
B3: GT29-9: Ginseng UDP-glycosyltransferase, 446 amino acids, SEQ ID NO: 18 (protein)
chain: MDNQKGRISIVMLPFLAHGHISPFFELAKHLSKRNCNIFLCSTPINLSSIKNRISDKDSSASIKLVELHLPSSPDLPPHYHTTNGLPSHLMVPLRNAFETAAPTFSEILKTLNPDLLIYDFNPSWAPEIASSHNIPAVCFIIGGAASFSMSLHSFKNPGEKYPFLDFDDNSNITPEPPSADNMKLLLDFMTCFERSCDIILIKSFRELEGKYFDFYSTLSDKTLVPVGPLVQDPMGHNEDPKTEQFINWLDKRAESTVVFVCFGSEYFLSNEELEEVAIGLEISMVNFIWAVRLIEGEKKGVLPEGFVQRVGDRGLVVEGWAPQARILGHSSTGGFVSHCGWSSIAESMKFGVPVIAMARHLDQPLNGKLAAEVGVGMEVVRDENGKYKREDIAGVIRKVVVEKSGEVIRRKARELSEKMKEIGEQLIDRAVEELVQICKKKKDEQ
modifications: misc_feature - GT29-9; Panax ginseng
B4: GT29-18: Ginseng UDP-glycosyltransferase, 446 amino acids, SEQ ID NO: 26 (protein)
chain: MDNQKGRISIVMLPFLAHGHISPFFELAKHLSKRNCNIFLCSTPINLSSIKNRISDKDSSASIKLVELHLPSSPDLPPHYHTTNGLPSHLMVPLRNAFETAAPTFSEILKTLNPDLLIYDFNPSWAPEIASSHNIPAVCFIIGGAASFSMSLHSFKNPGEKYPFLDFDDNSNITPEPPSADNMKLLLDFMTCFERSCDIILIKSFRELEGKYFDFYSTLSDKTLVPVGPLVQDPMGHNEDPKTEQFINWLDKRAESTVVFVCFGSEYFLSNEELEEVAIGLEISMVNFIWAVRLIEGEKKGVLPEGFVQRVGDRGLVVEGWAPQARILGHSSTGGFVSHCGWSSITESMKFGVPVIAMARHFDQPLNAKLAAEVGVGMEVVRDENGKYKREDIAGVIRKVVVEKSGEVMRRKARELSEKMKEKGEEEIDRAVEELVQICKKKKDAQ
modifications: misc_feature - GT29-18; Panax ginseng
B5: GT29-13: Ginseng UDP-glycosyltransferase, 446 amino acids, SEQ ID NO: 22 (protein)
chain: MDNQKGRISIVMLPFLAHGHISPFFELAKHLSKRNCNIFLCSTPINLSSIKNRISDKDSSASIKLVELHLPSSPDLPPHYHTTNGLPSHLMVPLRNAFETAAPTFSEILKTLNPDLLIYDFNPSWAPEIASSHNIPAVCFIIGGAASFSMSLHSFKNPGEKYPFLDFDDNSNITPEPPSADNMKLLLDFMTCFERSCDIILIKSFRELEGKYFDFYSTLSDKTLVPVGPLVQDPMGHNEDPKTEQFINWLDKRAESTVVFVCFGSEYFLSNEELEEVAIGLEISMVNFIWAVRLIEGEKKGVLPEGFVQRVGDRGLVVEGWAPQARILGHSSTGGFVSHCGWSSITESMKFGVPVIAMARHFDQPLNAKLAAEVGVVMEVVRDENGKYKREDIAGVIRKVVVEKSGEVIRRKARELSEKMKEIGEQLIDRAVEELVQICKKKKDEQ
modifications: misc_feature - GT29-13; Panax ginseng
B6: GT29-11: Ginseng UDP-glycosyltransferase, 446 amino acids, SEQ ID NO: 20 (protein)
chain: MDNQKGRISIVMLPFLAHGHISPFFELAKHLSKRNCNIFLCSTPINLSSIKNRISDKDSSASIKLVELHLPSSPDLPPHYHTTNGLPSHLMVPLINAFETAGPTFSEILKTLNPDLLIYDFNPSWAPEIASSHNIPAVYFLTTAAASSSIGLHAFKNPGEKYPFPDFYDNSNNTPEPPSADNMKLLHDFIACFERSCDIILIKSFIELEGKYIDLLSTLSDKTLVPVGPLVQDPMGHNEDPKTEQIINWLDKRAESTVVFVCFGSEYFLSNEELEEVAIGLEISMVNFIWAVRLIEGEKKGVLPEGFVQRVGDRGLVVEGWAPQARILGHSSTGGFVSHCGWSSIAESMKFGVPVIAMARHLDQPLNGKLAAEVGVGMEVVRDENGKYKREGIAEVIRKVVVEKSGEVMRRKARELSEKMKEKGEEEIDRAVEELVQICKKKKDAQ
modifications: misc_feature - GT29-11; Panax ginseng
B7: GT29-20: Ginseng UDP-glycosyltransferase, 442 amino acids, SEQ ID NO: 118 (protein)
chain: MDNQKGRISIALLPFLAHGHISPFFELAKQLAKRNCNVFLCSTPINLSSIKDKDSSASIKLVELHLPSSPDLPPHYHTTNGLPSHLMLPLRNAFETAGPTFSEILKTLNPDLLIYDFNPSWAPEIASSHNIPAVYFLTTAAASSSIGLHAFKNPGEKYPFPDFYDNSNITPEPPSADNMKLLHDFIACFERSCDIILIKSFRELEGKYIDLLSTLSDKTLVPVGPLVQDPMGHNEDPKTEQIINWLDKRAESTVVFVCFGSEYFLSNEELEEVAIGLEISTVNFIWAVRLIEGEKKGILPEGFVQRAGDRGLVVEGWAPQARILGHSSTGGFVSHCGWSSIAESMKFGVPVIAMARHLDQPLNGKLAAEVGVGMEVVRDENGKYKREGIAEVIRKVVVEKSGEVIRRKARELSEKMKEKGEQEIDRALEELVQICKKKKDEQ
modifications: misc_feature - GT29-20; Panax ginseng
B8: GT29-21: Ginseng UDP-glycosyltransferase, 442 amino acids, SEQ ID NO: 120 (protein)
chain: MDNQKGRISIALLPFLANGHISPFFELAKQLAKRNCNVFLCSTPINLSSIKDKDSSASIKLVELHLPSSPDLPPHYHTTNGLPSHLMLPLRNAFETAGPTFSEILKTLNPDLLIYDFNPSWAPEIASSHNIPAVYFLTTAAASSSIGLHAFKNPGEKYPFPDFYDNSNITPEPPSADNMKLLHDFIACFERSCDIILIKSFRELEGKYIDLLSTLSDKTLVPVGPLVQDPMGHNEDPKTEQIINWLDKRAESTVVFVCFGSEYFLSNEELEEVAIGLEISTVNFIWAVRLIEGEKKGILPEGFVQRVGDRGLVVEGWAPQARILGHSSIGGFVSHCGWSSIAESMKFGVPVIAMARHLDQPLNGKLAAEVGVGMEVVRDENGKYKREGIAEVIRKVVVEKSGEVIRRKARELSEKMKEKGEQEIDRALEELVQICKKKKDEQ
modifications: misc_feature - GT29-21; Panax ginseng
B9: GT29-22: Ginseng UDP-glycosyltransferase, 442 amino acids, SEQ ID NO: 122 (protein)
chain: MDNQKGRISIALLPFLAHGHISPFFELAKQLAKRNCNVFLCSTPINLSSIKDKDSSASIKLVELHLPSSPDLPPHYHTTNGLPSHLMLPLRNAFETAGPTFSEILKTLNPDLLIYDFNPSWAPEIASSHNIPAVYFLTTAAASSSIGLHAFKNPGEKYPFPDFYDNSNITPEPPSADNMKLLHDFIACFERSCDIILIKSFRELEGKYIDLLSTLSDKTLVPVGPLVQDPMGHNEDPKTEQIINWLDKRAESTVVFVCFGSEYFLSNEELEEVAIGLEISTVNFIWAVRLIEGEKKGILPEGFVQRVGDRGLVVEGWAPQARILGHSSTGGFVSHCGWSSIAEIMKFGVPVIAMARHLDQPLNGKLAAEVGVGMEVVRDENGKYKREGIAEVIRKVVVEKSGEVIRRKARELSEKMKEKGEQEIDRALEELVQICKKKKDEQ
modifications: misc_feature - GT29-22; Panax ginseng

Assays:
Type in all cases: biochemical
[1] = In vitro transglycosylation at C-3, Rd as glycosyl acceptor, UDP-xylose as donor; conditions: crude enzyme (E. coli lysate supernatant); TLC, FIG. 14
[2] = In vitro transglycosylation at C-3, Rh2 as glycosyl acceptor, UDP-glucose as donor; conditions: crude enzyme (E. coli lysate supernatant); TLC, FIG. 13, FIG. 15
From the text: Cell lysate of recombinant E. coli with empty vector pET28a was used as a control.

[3] = In vitro transglycosylation at C-6, Rg1 as glycosyl acceptor, UDP-xylose as donor; conditions: crude enzyme (E. coli lysate supernatant); TLC and HPLC, FIG. 7-9

| Molecule | product formation from Rd and UDP-xylose (replacement of second glucose at C-3 with xylose) [1] | product formation from Rh2 and UDP-glucose (Rg3) [2] | product formation from Rg1 and UDP-xylose (notoginsenoside R1) [3] |
| --- | --- | --- | --- |
| B1 | can all catalyze the replacement of the second glucose at C-3 position of Rd with xylose | can all catalyze the extension of a glucosyl at the C-3 glycosyl of Rh2 to generate Rg3 | – |
| B2 | – | – | can catalyze the formation of Notoginsenoside RI |
| B3 | – | – | can catalyze the formation of Notoginsenoside RI |
| B4 | – | – | can catalyze the formation of Notoginsenoside RI |
| B5 | – | – | can catalyze the formation of Notoginsenoside RI |
| B6 | – | – | can catalyze the formation of Notoginsenoside RI |
| B7 | can all catalyze the replacement of the second glucose at C-3 position of Rd with xylose | can all catalyze the extension of a glucosyl at the C-3 glycosyl of Rh2 to generate Rg3 | – |
| B8 | can all catalyze the replacement of the second glucose at C-3 position of Rd with xylose | can all catalyze the extension of a glucosyl at the C-3 glycosyl of Rh2 to generate Rg3 | – |
| B9 | can all catalyze the replacement of the second glucose at C-3 position of Rd with xylose | can all catalyze the extension of a glucosyl at the C-3 glycosyl of Rh2 to generate Rg3 | – |
